Common to all, as to test: fluorescence polarisation
The target in test [1] is T1, chloroplast signal recognition particle 43-kDa protein (cpSRP43), wild type, full length (A. thaliana, UniProt O22265 57-373).
T1 sequence: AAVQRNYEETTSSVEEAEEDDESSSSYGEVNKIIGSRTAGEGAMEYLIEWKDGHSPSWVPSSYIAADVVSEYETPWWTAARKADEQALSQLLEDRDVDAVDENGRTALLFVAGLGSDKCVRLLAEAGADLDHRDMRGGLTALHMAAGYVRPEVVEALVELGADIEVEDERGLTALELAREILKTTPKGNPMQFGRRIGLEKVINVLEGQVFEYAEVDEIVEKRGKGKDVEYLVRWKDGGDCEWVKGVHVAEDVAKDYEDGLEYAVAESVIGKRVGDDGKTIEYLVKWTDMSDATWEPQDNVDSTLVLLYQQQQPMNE

The target in test [2] is T1, chloroplast signal recognition particle …. This is another data set of the same source.
Test [3] shares this target. This is another data set of the same source.

Like-named read-outs stand apart in the source and are kept apart here. No end group written: not given here.

Broadly, the Kd is the equilibrium constant for the complex coming apart. GSFDPLGLADD (also: HiLyte Fluor 488 label, position not given here) [HiLyte Fluor 488-labeled L11 peptide]: the values for the Kd in test [1], in test [2] and in test [3] were 12 nM, 28 nM and 710 nM, respectively.

QKQKAPPGTARRKRKAC (also: fluorescein label, position not given here) [fluorescein-labeled 54C peptide]: the Kd in test [1] was 36 nM; in test [2], 230 nM; in test [3], 5000 nM.

Values taken from article PMC12164976 (Science Advances, 2025).
